Assay results taken from patent publication US20210032315A1 (VIVORYON THERAPEUTICS N V, published 2021).
Read-outs that look alike come from different tables or passages of the source.

T1: full length human CD32A (human, UniProt P12318 34-317)
T1 construct: whole, on cells; also called Fc gamma receptor
T1 sequence (looked up): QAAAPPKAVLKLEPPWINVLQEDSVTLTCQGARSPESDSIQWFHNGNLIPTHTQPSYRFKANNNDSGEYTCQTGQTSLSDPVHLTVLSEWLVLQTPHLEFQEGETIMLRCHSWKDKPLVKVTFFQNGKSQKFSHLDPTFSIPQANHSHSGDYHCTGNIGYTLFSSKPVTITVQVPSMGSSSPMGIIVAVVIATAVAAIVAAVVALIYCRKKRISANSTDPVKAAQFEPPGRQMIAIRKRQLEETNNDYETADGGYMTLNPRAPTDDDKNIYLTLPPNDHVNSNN

T2: full length human CD32B (human, UniProt P31994 43-310)
T2 construct: whole, on cells; also called Fc gamma receptor
T2 sequence (looked up): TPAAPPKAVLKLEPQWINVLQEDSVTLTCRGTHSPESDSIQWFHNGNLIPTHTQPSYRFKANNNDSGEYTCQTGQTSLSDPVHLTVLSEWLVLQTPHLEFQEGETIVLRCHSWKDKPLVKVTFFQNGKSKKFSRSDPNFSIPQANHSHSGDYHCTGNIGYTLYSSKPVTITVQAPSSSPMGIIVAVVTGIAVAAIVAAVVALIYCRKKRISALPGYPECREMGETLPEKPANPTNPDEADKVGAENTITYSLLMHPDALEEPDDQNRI

T3: Aβ (4-18) (human)
T3 peptide: FRHDSGYEVHHQKLV

T4: Aβ (1-18) (human)
T4 peptide: DAEFRHDSGYEVHHQKLV


Tests used:
[1] = molecular target: T5, full length human CD16A (human, UniProt P08637 17-254); experiment: FACS on CHO cells stably expressing the receptor, 7 concentrations
T5 construct: whole, on cells; also called Fc gamma receptor
T5 sequence (P08637 17-254): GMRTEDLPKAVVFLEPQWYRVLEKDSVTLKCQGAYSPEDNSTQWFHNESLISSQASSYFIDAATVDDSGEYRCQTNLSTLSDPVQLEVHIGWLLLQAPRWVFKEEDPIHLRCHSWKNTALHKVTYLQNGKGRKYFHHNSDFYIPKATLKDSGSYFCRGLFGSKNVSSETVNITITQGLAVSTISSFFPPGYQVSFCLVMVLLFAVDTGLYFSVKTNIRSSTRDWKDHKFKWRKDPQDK
Protocol: (§1) The binding was measured in a FACS based bioassay to Chinese Hamster Ovary (CHO) cells stably expressing full length human CD16A, CD32A, CD32B, or CD64. Both antibodies were incubated with each cell line at 7 different concentrations for one hour followed by washing. Receptor-bound H6 or H67 was detected with fluorochrome conjugated-anti-Fab′. Binding capacity was measured by FACS and the Kd and Bmax were calculated by non-linear regression.

[2] = molecular target: T6, full length human CD64 (human, UniProt P12314 16-374); experiment: as above
T6 construct: whole, on cells; also called Fc gamma receptor
T6 sequence (P12314 16-374): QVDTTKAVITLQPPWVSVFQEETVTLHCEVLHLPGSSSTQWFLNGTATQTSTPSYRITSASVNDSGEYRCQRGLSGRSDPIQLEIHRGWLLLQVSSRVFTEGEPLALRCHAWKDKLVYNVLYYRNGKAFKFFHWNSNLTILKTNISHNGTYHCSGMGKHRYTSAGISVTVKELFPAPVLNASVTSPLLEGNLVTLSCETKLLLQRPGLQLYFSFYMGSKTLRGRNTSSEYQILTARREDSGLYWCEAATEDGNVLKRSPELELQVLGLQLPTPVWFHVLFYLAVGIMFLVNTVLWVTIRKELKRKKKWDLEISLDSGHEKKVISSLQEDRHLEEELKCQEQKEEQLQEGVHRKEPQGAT
Protocol: as §1

[3] = molecular target: T1, full length human CD32A; experiment: as above
Protocol: as §1

[4] = molecular target: T2, full length human CD32B; experiment: as above
Protocol: as §1

[5] = molecular target: T7, Fibrils of Aβ (1-42) peptides (human); experiment: SPR, fibrils captured on the chip, antibody as analyte, single cycle kinetics
T7 construct: Fibrillar aggregate of Aβ 1-42, made at pH 8.7 and 37 °C and captured on the sensor chip (about 100 RU); also called Aβ (1-42) fibrils
T7 sequence (peptide, as listed by the source): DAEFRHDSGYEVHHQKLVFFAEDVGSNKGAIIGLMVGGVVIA
Protocol: (§2) The obtained sensorgrams were evaluated using five consecutive concentrations (starting with the first injection showing binding) and the Single Cycle Kinetics model with a global fit of Rmax and baseline drift and local fits of the bulk effect of every injection.

[6] = molecular target: T8, Oligomers of Aβ (1-42) peptides (human); experiment: SPR, oligomers captured on the chip, antibody as analyte, single cycle kinetics
T8 construct: Oligomeric Aβ 1-42, made by the ACUMEN protocol in Ham's F12 at 4 °C and captured on the sensor chip (about 300 RU); also called Aβ (1-42) oligomers
T8 sequence (peptide, as listed by the source): as above
Protocol: Oligomers of Aβ (1-42) peptides were generated according to the ACUMEN protocol in Ham's F12 medium overnight at 4° C. and separated from aggregated Aβ by centrifugation. Afterwards the oligomers were aspirated in 20 μl, diluted in 60 μl running buffer and loaded onto a sensor chip by use of capture antibodies with a flow rate of 1 μl/min. Then, the system was washed overnight with 100 μl/min getting a stable baseline.
as §2

[7] = molecular target: T3, Aβ (4-18); experiment: SPR, antibody captured by anti-human antibody, peptide as analyte, steady-state model
[8] = molecular target: T3, Aβ (4-18); experiment: as above
[9] = molecular target: T4, Aβ (1-18); experiment: SPR, antibody captured by anti-human antibody, peptide as analyte

Binder | binding result [1] | binding result [2] | binding result [3] | binding result [4] | Kd [5] | koff [5] | kon [5] | Kd [6] | koff [6] | kon [6] | Kd [7] | Kd [8] | Kd [9]
antibody comprising the wild-type heavy chain of SEQ ID NO: 19 (antibody, human IgG1, kappa, also called antibody according to A)) heavy: not shown light: DVVMTQSPLSLPVTLGQPASISCKSSQSLLYSDGKTYLNWFQQRPGQSPRRLTYLVSKLDSGVPDRFSGSGSGTDFTLKISRVEAEDVGVYYCVQGTHFPFTFGGGTKVEIKRTVAAPSVFIFPPSDEQLKSGTASVVCLLNNFYPREAKVQWKVDNALQSGNSQESVTEQDSKDSTYSLSSTLTLSKADYEKHKVYACEVTHQGLSSPVTKSFNRGEC | binds | binds | binds | binds | – | – | – | – | – | – | – | – | –
K324A mutant variant (comprising the heavy chain of SEQ ID NO: 18) (antibody, human IgG1, kappa, also called antibody according to B)) heavy: not shown light: DVVMTQSPLSLPVTLGQPASISCKSSQSLLYSDGKTYLNWFQQRPGQSPRRLTYLVSKLDSGVPDRFSGSGSGTDFTLKISRVEAEDVGVYYCVQGTHFPFTFGGGTKVEIKRTVAAPSVFIFPPSDEQLKSGTASVVCLLNNFYPREAKVQWKVDNALQSGNSQESVTEQDSKDSTYSLSSTLTLSKADYEKHKVYACEVTHQGLSSPVTKSFNRGEC | binds | binds | binds | binds | – | – | – | – | – | – | – | – | –
parental antibody clone #6 disclosed in WO 2017/009459 (antibody, V domains shown, also called parental clone #6 variant) VH: QVQLVQSGAEVKKSGASVKVSCKASGYSFTGHTMNWVRQAPGQGLEWMGLINPSNGVTRYNQKFQGRVTITRDTSTTTVHMELTSLTSEDTATYYCTREAKREWDETYWGQGTLVTVSS VL: DVVMTQSPLSLPVTLGQPASISCKSSQSLLYSDGKTYLNWFQQRPGQSPRRLTYLVSKLDSGVPDRFSGSGSGTDFTLKISRVEAEDVGVYYCVQGTHFPFTFGGGTKVEIK | – | – | – | – | 0.0659 nM | 6.53e-05 s⁻¹ | 990000 M⁻¹ s⁻¹ | 7.61 nM | 0.000142 s⁻¹ | 18600 M⁻¹ s⁻¹ | – | – | –
humanized and de-immunized antibody clone #6 of the present invention (antibody, V domains shown, It was captured by a polyclonal anti-human antibody, so it has human constant regions) VH: QVQLVQSGAEVVKPGASVKVSCKASGYSFTGHTMNWVRQAPGQGLEWMGLINPSDGVTRYNQKFQGRVTITRDTSTTTVHMELTSLTSEDTATYYCTREAKREWDETYWGQGTLVTVSS VL: DVVMTQSPLSLPVTLGQPASISCKSSQSLLYSDGKTYLNWFQQRPGQSPRRLTYLVSKLDSGVPDRFSGSGSGTDFTLKISRVEAEDVGVYYCVQGTHFPFTFGGGTKVEIK | – | – | – | – | 1.67 nM | – | – | 269 nM | – | – | > 10000 nM | 28300 nM | > 10000 nM
